The source of these data is article PMC12695944, “Geminin inhibits DNA replication licensing by sterically blocking CDT1-MCM2 interactions” (Nature Communications, 2025).

T1: CDT1^ΔN (N-terminally truncated CDT1^158-546) (human, UniProt Q9H211 158-546)
T1 chain: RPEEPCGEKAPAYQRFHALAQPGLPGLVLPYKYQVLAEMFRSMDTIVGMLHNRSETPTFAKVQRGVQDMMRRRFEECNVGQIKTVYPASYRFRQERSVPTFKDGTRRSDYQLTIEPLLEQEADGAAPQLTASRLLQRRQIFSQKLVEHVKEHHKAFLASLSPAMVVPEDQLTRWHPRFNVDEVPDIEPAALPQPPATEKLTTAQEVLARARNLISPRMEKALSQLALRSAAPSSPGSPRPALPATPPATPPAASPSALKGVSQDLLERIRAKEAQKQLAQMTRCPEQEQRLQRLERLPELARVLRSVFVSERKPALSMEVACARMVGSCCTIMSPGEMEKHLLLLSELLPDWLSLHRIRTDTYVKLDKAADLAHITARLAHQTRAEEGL

T2: CDT1^ΔN (N-terminally truncated CDT1^158-546) (human, UniProt Q9H211 158-546)
T2 construct: CDT1, human, UniProt Q9H211, residues 158-546 (lacks the unstructured N-terminus); Plasmid is in Supplementary Data 1; The His tag serves for capture on the NTA chip in the SPR with peptides; also called standard CDT1 construct; source: E. coli BL21 (DE3), purified (HisTrap Excel, POROS HS, Superdex 200); not shown: His6, N-terminal, kept
T2 sequence (looked up): T1 chain

B1: Gem^96–160 (geminin coiled-coil peptide) (peptide, UniProt O75496 96-160, looked up)
peptide: Ac-SQYWKEVAEKRRKALYEALKENEKLHKEIEQKDNEIARLKKENKELAEVAEHVQYMAELIERLNG-NH2
notes: geminin, human, UniProt O75496, residues 96-160 (the full coiled-coil); Made on Rink amide resin; source: synthetic peptide
B2: Gem^96–140 (peptide, UniProt O75496 96-140, looked up)
peptide: Ac-SQYWKEVAEKRRKALYEALKENEKLHKEIEQKDNEIARLKKENKE-NH2
notes: geminin, human, UniProt O75496, residues 96-140; Made on Rink amide resin; source: synthetic peptide
B3: Gem^96–135 (minimal CDT1-binding peptide) (peptide, UniProt O75496 96-135, looked up)
peptide: Ac-SQYWKEVAEKRRKALYEALKENEKLHKEIEQKDNEIARLK-NH2
notes: Made on Rink amide resin; source: synthetic peptide
B4: Gem^90–145 (peptide, UniProt O75496 90-145, looked up)
peptide: Ac-IKENPSSQYWKEVAEKRRKALYEALKENEKLHKEIEQKDNEIARLKKENKELAEVA-NH2
notes: geminin, human, UniProt O75496, residues 90-145; Made on Rink amide resin; source: synthetic peptide
B5: Gem^96–145 (peptide, UniProt O75496 96-145, looked up)
peptide: Ac-SQYWKEVAEKRRKALYEALKENEKLHKEIEQKDNEIARLKKENKELAEVA-NH2
notes: geminin, human, UniProt O75496, residues 96-145; Made on Rink amide resin; source: synthetic peptide
B6: Gem^102–160 (peptide, UniProt O75496 102-160, looked up)
peptide: Ac-VAEKRRKALYEALKENEKLHKEIEQKDNEIARLKKENKELAEVAEHVQYMAELIERLNG-NH2
notes: geminin, human, UniProt O75496, residues 102-160; Made on Rink amide resin; source: synthetic peptide
B7: Gem^76–145 (chemically synthesised peptide) (peptide, UniProt O75496 76-145, looked up)
peptide: Ac-KNLGGVTQESFDLMIKENPSSQYWKEVAEKRRKALYEALKENEKLHKEIEQKDNEIARLKKENKELAEVA-NH2
notes: geminin, human, UniProt O75496, residues 76-145; Made on Rink amide resin; The recombinant recGem^76–145 is another molecule, used only in licensing assays; source: synthetic peptide
B8: Gem^82–145 (peptide, UniProt O75496 82-145, looked up)
peptide: Ac-TQESFDLMIKENPSSQYWKEVAEKRRKALYEALKENEKLHKEIEQKDNEIARLKKENKELAEVA-NH2
notes: geminin, human, UniProt O75496, residues 82-145; Made on Rink amide resin; source: synthetic peptide
B9: Gem^76–135 (peptide, UniProt O75496 76-135, looked up)
peptide: Ac-KNLGGVTQESFDLMIKENPSSQYWKEVAEKRRKALYEALKENEKLHKEIEQKDNEIARLK-NH2
notes: as for B3
B10: Gem^76–140 (peptide, UniProt O75496 76-140, looked up)
peptide: Ac-KNLGGVTQESFDLMIKENPSSQYWKEVAEKRRKALYEALKENEKLHKEIEQKDNEIARLKKENKE-NH2
notes: geminin, human, UniProt O75496, residues 76-140; Made on Rink amide resin; source: synthetic peptide
B11: Gem^LINK (geminin with a short glycine linker between the two CDT1 interaction interfaces) (natural protein)
chain: MNPSMKQKQEEIKENIKNSSVPRRTLKMIQPSASGSLVGRENELSAGLSKRKHRNDHLTSTTSSPGVIVPESSENKNLGGVTQESFDLMIGGGGGKENPSSQYWKEVAEKRRKALYEALKENEKLHKEIEQKDNEIARLKKENKELAEVAEHVQYMAELIERLNGEPLDNFESLDNQEFDSEEETVEDSLVEDSEIGTCAEGTVSSSTDAKPCI
modifications: Full-length geminin with a 5x Gly insertion between I90 and K91 (K96 in post-insertion numbering; no deletion, since mutant residues 76-165 correspond to WT 76-160). Homodimer assumed as for wild …

The first data set concerns the target T1, CDT1^ΔN (N-terminally truncated …). Kind of data set: SPR.
Details: not given
Turning to B1, the Kd (commonly the equilibrium constant for the complex coming apart) came out at 21 nM.
The same measure, in the same setting: in the case of B2 it was 32 nM; in that of B3, 22 nM.

The next data set deals with T2, CDT1^ΔN (N-terminally truncated …). Put plainly: SPR; multi-cycle; CDT1^ΔN captured by its N-terminal His tag on an NTA chip; geminin peptides 0.49–250 nM (two-fold steps); 25 °C; 10 mM HEPES, 500 mM NaCl, 50 µM EDTA, 1 mM TCEP-HCl, 0.05% Tween-20, pH 8.0; 1:1 kinetic model of analyte dimer:CDT1, steady-state 1:1 model for Gem^96–160 and Gem^102–160. The conditions noted are these: both partners purified. On the technique in general: In SPR one partner is held on a chip, and binding of the other changes the refractive index at the surface.
In turn, B4 returned a Kd of 93 nM.
Same read-out and setting: in the case of B5 it was 38 nM.
For the molecule B1, the binding result is recorded as “binds”.
In the case of B6, the affinity, expressed as Kd, was 2800 nM.
B2: the binding result is given as “binds”.
On to B7, for which the Kd came to 5.7 nM.
Same read-out and setting: the value for B8 was 5.8 nM.
With B9, the binding result was “binds”.
Same read-out and setting: the value for B3 was “binds”; that for B10 was “binds”.

In another data set the target is T1, CDT1^ΔN (N-terminally truncated …). Kind of data set: SPR.
Details: not given
This is another data set of the same source.
On to B9, for which the koff (as a rule, a measure of how fast the partners let go of each other) worked out at 0.0029 s⁻¹.
In turn, B10 registered a koff of 0.0033 s⁻¹.

The next data set has the same target. Put plainly: SPR.
Details: not given
This is another data set of the same source.
B5 returned a koff of 0.031 s⁻¹.
Turning to B2, the koff came out at 0.022 s⁻¹.
Same read-out and setting: the value for B3 was 0.024 s⁻¹.

The target is the same in a further data set. Put plainly: SPR.
Details: not given
The source holds these as a separate data set.
The molecule B4 registered a koff of 0.045 s⁻¹.
Same read-out and setting: in the case of B7 it was 0.0034 s⁻¹.
Take B8: the koff worked out at 0.0032 s⁻¹.

The next data set concerns the molecule itself. Kind of data set: SEC-MALS; Superdex 200 Increase 10/300 GL; peptides 500–1000 µM, 100 µL injected; 10 mM HEPES, 150 mM NaCl, 1 mM TCEP-HCl, pH 7.5; 0.25 mL/min.
Details: not given
(In general: In gel filtration, larger molecules generally elute earlier.)
With B4, the stoichiometry N (usually the number of molecules, sites or subunits per partner or assembly) was 2.
The same measure, in the same setting: the value for B5 was 2; that for B1 was 2.
Still for that read-out and setting: the value for B6 was 2; that for B2 was 2.
The same measure, in the same setting: in the case of B7 it was 2; in that of B8, 2.
For B9, the “stoichiometry N” value is 2.
On the same count and under the same terms, in the case of B3 it was 2.
Still for that read-out and setting: the value for B10 was 2.

For another data set, the target named is T1, CDT1^ΔN (N-terminally truncated …). Put plainly: SPR.
Details: not given
This is another data set of the same source.
With B9, the Kd came to 7 nM.
The same measure, in the same setting: in the case of B10 it was 11 nM.

The next data set deals with T2, CDT1^ΔN (N-terminally truncated …). Put plainly: SPR; CDT1^ΔN with Gem^LINK; steady-state 1:1 binding model; chip and cycle format not stated for Gem^LINK; 25 °C; 10 mM HEPES, 500 mM NaCl, 50 µM EDTA, 1 mM TCEP-HCl, 0.05% Tween-20, pH 8.0. The settings on record: both partners purified.
Molecule B11 showed a Kd of 38 nM.
